Results taken from publication PMC7226629.

Columns and labels:
[1] = target: CCR5 (human (endogenous in SNU387, PLC/PRF-5, SK-HEP-1)) (UniProt P51681)
[2] = target: CCR5 (human (endogenous in SNU387, PLC/PRF-5, SK-HEP-1)) (UniProt P51681); remark: listed apart in the source

UniProt P51681, sequence (P51681 whole entry): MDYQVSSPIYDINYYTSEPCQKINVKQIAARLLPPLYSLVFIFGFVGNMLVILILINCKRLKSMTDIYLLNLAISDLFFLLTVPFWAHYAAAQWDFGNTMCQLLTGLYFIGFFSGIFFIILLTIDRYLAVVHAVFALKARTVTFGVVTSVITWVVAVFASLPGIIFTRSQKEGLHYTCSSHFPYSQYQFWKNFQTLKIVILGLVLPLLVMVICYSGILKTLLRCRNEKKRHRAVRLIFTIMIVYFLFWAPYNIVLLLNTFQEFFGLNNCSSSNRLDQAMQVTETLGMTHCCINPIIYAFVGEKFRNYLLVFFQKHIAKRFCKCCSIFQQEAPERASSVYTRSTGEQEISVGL

CCL5 recombinant protein (from UniProt P13501 24-91) (ligand)
Akt-1 mRNA (qRT-PCR) in PLC/PRF-5 cells treated with CCL5; diminished by maraviroc [1]: 1.3 fold | Akt-1 mRNA (qRT-PCR) in SK-HEP-1 cells treated with CCL5; diminished by maraviroc [1]: 1.2 fold | E-cadherin mRNA (qRT-PCR) in PLC/PRF-5 cells after exposure to maraviroc, compared to CCL5-treated cells [1]: 0.3 fold | E-cadherin mRNA (qRT-PCR) in SK-HEP-1 cells after exposure to maraviroc, compared to CCL5-treated cells [1]: 0.8 fold | beta-catenin mRNA (qRT-PCR) in PLC/PRF-5 cells treated with CCL5; diminished by maraviroc [1]: 1.7 fold | beta-catenin mRNA (qRT-PCR) in SK-HEP-1 cells treated with CCL5; diminished by maraviroc [1]: 1.3 fold | caspase-3 mRNA (qRT-PCR) in HCC cells: down-regulated with CCL5, higher with CCL5 plus maraviroc in two of the three cell lines [2]: 0.5 fold
